Data reported in paper PMC6698733.

T1: Dhr1 isolated C-terminal domain (CTD) (Saccharomyces cerevisiae, UniProt Q04217 1176-1267)
T1 sequence: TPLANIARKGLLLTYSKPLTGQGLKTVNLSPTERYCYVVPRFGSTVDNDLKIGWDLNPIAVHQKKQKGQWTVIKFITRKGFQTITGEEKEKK


Target: T1, Dhr1 isolated C-terminal domain (CTD)
Test: not stated

Row | Binder | binding result
1 | UUUUUUUUUUUUUUU (ssRNA) [poly(U)15] | no binding
2 | AAAAAAAAAAAAAAA (ssRNA) [poly(A)15] | no binding
